The record followed here is paper PMC10626418.

Non-standard residues stand in square brackets, D forms with d. Groups on a side chain read outwards from the residue. Primed or numbered codes have the meaning given here. No end group written: not given here. *: point of attachment. Biotin = O=C1N[C@H]2[C@H](CS[C@H]2CCCCC(=O)*)N1; PEG2′ = not defined here

The target in the assay is I-E^k (murine MHC class II molecule, surface-resident on BMDCs and B-cells) (mouse (endogenous in BMDCs and B-cells of B10.A mice)). In words: flow cytometry on cells; B-cells and BMDCs pulsed with 25 and 50 uM MCC-PEG2-biotin for up to 36 h (with LPS), stained with saturating mSav-AF647 or 14.4.4 scFV-AF647 (10 ug/ml); ratio of the MFIs. On the technique in general: A flow cytometer gives signals particle by particle.

With ANERADLIAYLKQATK[dS][dS][dC]([maleimide-PEG2′-Biotin]) [C-terminally biotinylated MCC peptide 88-103 derivative (MCC-PEG2-biotin)], the proportion of surface-resident I-E^k loaded with the peptide was under 17%.
